Assay results reported in patent US20250277199, “NOVEL CRISPR-CAS NUCLEASES FROM METAGENOMES” (Brain Biotech AG, published 2025).

Target: T1, BMC07 (uncultured bacterium (metagenome))
T1 chain: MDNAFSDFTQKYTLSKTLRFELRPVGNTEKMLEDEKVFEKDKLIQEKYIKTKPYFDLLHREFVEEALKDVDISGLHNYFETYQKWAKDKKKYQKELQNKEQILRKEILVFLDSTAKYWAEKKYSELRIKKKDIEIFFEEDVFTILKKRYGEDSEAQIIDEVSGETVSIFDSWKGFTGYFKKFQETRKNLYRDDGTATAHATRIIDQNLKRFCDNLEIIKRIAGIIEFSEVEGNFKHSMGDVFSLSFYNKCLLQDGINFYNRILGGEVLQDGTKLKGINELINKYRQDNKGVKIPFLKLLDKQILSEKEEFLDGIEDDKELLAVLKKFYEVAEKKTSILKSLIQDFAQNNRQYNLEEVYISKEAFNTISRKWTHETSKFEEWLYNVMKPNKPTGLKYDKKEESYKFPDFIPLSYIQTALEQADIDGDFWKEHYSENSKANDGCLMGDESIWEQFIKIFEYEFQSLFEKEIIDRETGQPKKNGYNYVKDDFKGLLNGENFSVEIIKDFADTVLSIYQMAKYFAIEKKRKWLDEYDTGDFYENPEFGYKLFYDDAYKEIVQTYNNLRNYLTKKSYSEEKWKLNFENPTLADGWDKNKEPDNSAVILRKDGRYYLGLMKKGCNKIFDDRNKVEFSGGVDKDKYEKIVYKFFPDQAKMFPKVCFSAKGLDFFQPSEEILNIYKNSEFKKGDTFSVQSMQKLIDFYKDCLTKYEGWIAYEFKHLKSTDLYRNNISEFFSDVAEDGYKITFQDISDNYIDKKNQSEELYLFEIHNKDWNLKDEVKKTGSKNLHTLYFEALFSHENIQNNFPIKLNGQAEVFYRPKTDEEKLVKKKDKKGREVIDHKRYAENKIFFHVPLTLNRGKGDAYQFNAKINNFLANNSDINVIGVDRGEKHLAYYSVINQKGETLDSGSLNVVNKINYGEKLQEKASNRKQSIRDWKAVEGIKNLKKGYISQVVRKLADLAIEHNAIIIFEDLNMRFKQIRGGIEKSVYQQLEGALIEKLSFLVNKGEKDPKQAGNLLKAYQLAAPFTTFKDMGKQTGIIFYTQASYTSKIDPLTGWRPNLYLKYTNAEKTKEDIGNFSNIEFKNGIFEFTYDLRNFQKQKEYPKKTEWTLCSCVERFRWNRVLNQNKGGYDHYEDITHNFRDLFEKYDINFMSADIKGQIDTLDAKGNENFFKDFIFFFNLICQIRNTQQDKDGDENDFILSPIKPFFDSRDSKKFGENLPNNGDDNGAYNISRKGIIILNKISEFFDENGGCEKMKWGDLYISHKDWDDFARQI
Test: cell_activity; PAM not stated; E. coli depletion, 30 C
How it was run: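 E. coli carrying arabinose-induced (0.2%) BMC nuclease, grown at 30° C., made electrocompetent and electroporated with 50-100 ng plasmid carrying gRNA against malQ. Transformants plated on selective M9-glucose agar with kanamycin/ampicillin (± nourseothricin), and growth scored after 48 h at 30° C.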

B1: malQ gRNA (BMC stem-loop + 24 nt spacer) ; malQ protospacer (ssRNA ; dsDNA)
RNA: GAUUUCUACUAUUGUAGAUGUGGCGGUACGUUGAUGCAUCGCG
DNA 1: GTGGCGGTACGTTGATGCATCGCG
DNA 2: CGCGATGCATCAACGTACCGCCAC
- activity: > 99.9 % colony reduction
